Results published in patent US20240093246.

Test system: cyanobacterial flavodoxin

| Substance | flavodoxin photoreduction turnover rate | fold decrease of flavodoxin reduction against WT PSI | linear rate of flavodoxin photoreduction relative to JVD-1b^H6 PSI | linear rate of flavodoxin photoreduction relative to WT^H6 PSI |
| --- | --- | --- | --- | --- |
| wild-type photosystem I purified from strain JVD-1B^H6 | 5.7±0.3 Flvd s^-1 (PSI)^-1 | – | – | – |
| PSI-MeHydA complex (chimeric photosystem I carrying PsaC-MeHydA, from strain ΨH3^H6) | 0.7±0.1 Flvd s^-1 (PSI)^-1 | lowers flavodoxin reduction by a factor of 6-8 | 12.3±2.4% relative to JVD-1b^H6 PSI | ˜15.9±2.4% that of WT^H6 |
| wild-type photosystem I purified from strain WT^H6 (PBC4-2[pBSEP5.8]) | 4.4±0.6 Flvd s^-1 (PSI)^-1 | – | – | – |
